Test results reported in PMC8477557.

Biological target: CD123 extracellular domain (human (cDNA of L-428 cells)) (UniProt P26951)
Experiment: SPR
Details: bispecific antibody

CD123 extracellular domain (human (cDNA of L-428 cells)), sequence (P26951 19-305): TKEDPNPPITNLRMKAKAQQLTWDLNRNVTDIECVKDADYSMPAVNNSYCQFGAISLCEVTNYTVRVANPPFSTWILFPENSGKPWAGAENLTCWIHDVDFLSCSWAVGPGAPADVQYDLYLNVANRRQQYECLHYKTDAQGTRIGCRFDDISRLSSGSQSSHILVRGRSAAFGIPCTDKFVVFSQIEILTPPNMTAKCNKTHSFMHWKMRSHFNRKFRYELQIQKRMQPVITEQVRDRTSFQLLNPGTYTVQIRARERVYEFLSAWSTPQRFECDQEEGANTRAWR

1 × SIRPα-αCD123 fusion antibody (from UniProt P78324 31-149)
Kd: 2.74 nM

2 × SIRPα-αCD123 fusion antibody (from UniProt P78324 31-149; P78324 31-149)
Kd: 2.34 nM
